Changes are numbered by the printed parent chain. Names and notes keep the numbering of the source.
B1: GLS3000 V27cD one-arm antibody (antibody, human IgG1, kappa, L234A L235A, N297A, name in Kabat numbering)
heavy: QVQLVESGGGVVQPGRSLRLSCAASGFTFSNAWMHWVRQAPGKGLEWVAQIKAKSNNYATYYAESVKGRFTISRDDSKNSLYLQMNSLKTEDTAVYYCRYVHYGAYYGVDAWGQGTTVTVSSASTKGPSVFPLAPSSKSTSGGTAALGCLVKDYFPEPVTVSWNSGALTSGVHTFPAVLQSSGLYSLSSVVTVPSSSLGTQTYICNVNHKPSNTKVDKKVEPKSCDKTHTCPPCPAPEAAGGPSVFLFPPKPKDTLMISRTPEVTCVVVDVSHEDPEVKFNWYVDGVEVHNAKTKPREEQYASTYRVVSVLTVLHQDWLNGKEYKCKVSNKALPAPIEKTISKAKGQPREPQVYTLPPSRCELTKNQVSLSCAVKGFYPSDIAVEWESNGQPENNYKTTPPVLDSDGSFFLVSKLTVDKSRWQQGNVFSCSVMHEALHNHYTQKSLSLSPDYKDDDDK
chain: EPKSSDKTHTCPPCPAPELLGGPSVFLFPPKPKDTLMISRTPEVTCVVVDVSHEDPEVKFNWYVDGVEVHNAKTKPREEQYNSTYRVVSVLTVLHQDWLNGKEYKCKVSNKALPAPIEKTISKAKGQPREPQVCTLPPSRDELTKNQVSLWCLVKGFYPSDIAVEWESNGQPENNYKTTPPVLDSDGSFFLYSKLTVDKSRWQQGNVFSCSVMHEALHNRYTQKSLSLSP
light: DIVMTQSPLSLPVTPGEPASISCRSSQSLDHSNRNTYLHWYQQKPGQAPRLLIYKVSNRFSGVPDRFSGSGSGTDFTLKISRVEAEDVGVYYCGQGTQVPYTFGQGTKLEIKRTVAAPSVFIFPPSDEQLKSGTASVVCLLNNFYPREAKVQWKVDNALQSGNSQESVTEQDSKDSTYSLSSTLTLSKADYEKHKVYACEVTHQGLSSPVTKSFNRGEC
B2: GLS3000 V94A one-arm antibody (antibody, human IgG1, kappa, L234A L235A, N297A, name in Kabat numbering)
heavy: B1 heavy
chain: B1 chain
light: B1 light with D30V, V99A
B3: GLS3000 V27cL one-arm antibody (antibody, human IgG1, kappa, L234A L235A, N297A, name in Kabat numbering)
heavy: B1 heavy
chain: B1 chain
light: B1 light with D30L
B4: GLS3000 V94E one-arm antibody (antibody, human IgG1, kappa, L234A L235A, N297A, name in Kabat numbering)
heavy: B1 heavy
chain: B1 chain
light: B1 light with D30V, V99E
B5: GLS3000 V27cI one-arm antibody (antibody, human IgG1, kappa, L234A L235A, N297A, name in Kabat numbering)
heavy: B1 heavy
chain: B1 chain
light: B1 light with D30I
B6: GLS3000 V94G one-arm antibody (antibody, human IgG1, kappa, L234A L235A, N297A, name in Kabat numbering)
heavy: B1 heavy
chain: B1 chain
light: B1 light with D30V, V99G
B7: GLS3000 V51I one-arm antibody (antibody, human IgG1, kappa, L234A L235A, N297A, name in Kabat numbering)
heavy: B1 heavy
chain: B1 chain
light: B1 light with D30V, V56I
B8: GLS3000 V51P one-arm antibody (antibody, human IgG1, kappa, L234A L235A, N297A, name in Kabat numbering)
heavy: B1 heavy
chain: B1 chain
light: B1 light with D30V, V56P
B9: GLS3000 V94L one-arm antibody (antibody, human IgG1, kappa, L234A L235A, N297A, name in Kabat numbering)
heavy: B1 heavy
chain: B1 chain
light: B1 light with D30V, V99L
B10: GLS3000 V27cP one-arm antibody (antibody, human IgG1, kappa, L234A L235A, N297A, name in Kabat numbering)
heavy: B1 heavy
chain: B1 chain
light: B1 light with D30P
B11: GLS3000 V51D one-arm antibody (antibody, human IgG1, kappa, L234A L235A, N297A, name in Kabat numbering)
heavy: B1 heavy
chain: B1 chain
light: B1 light with D30V, V56D
B12: GLS3000 V27cS one-arm antibody (antibody, human IgG1, kappa, L234A L235A, N297A, name in Kabat numbering)
heavy: B1 heavy
chain: B1 chain
light: B1 light with D30S
B13: GLS3000 V51E one-arm antibody (antibody, human IgG1, kappa, L234A L235A, N297A, name in Kabat numbering)
heavy: B1 heavy
chain: B1 chain
light: B1 light with D30V, V56E
B14: GLS3000 V94I one-arm antibody (antibody, human IgG1, kappa, L234A L235A, N297A, name in Kabat numbering)
heavy: B1 heavy
chain: B1 chain
light: B1 light with D30V, V99I
B15: GLS3000 V94H one-arm antibody (antibody, human IgG1, kappa, L234A L235A, N297A, name in Kabat numbering)
heavy: B1 heavy
chain: B1 chain
light: B1 light with D30V, V99H
B16: GLS3000 V94F one-arm antibody (antibody, human IgG1, kappa, L234A L235A, N297A, name in Kabat numbering)
heavy: B1 heavy
chain: B1 chain
light: B1 light with D30V, V99F
B17: GLS3000 V51G one-arm antibody (antibody, human IgG1, kappa, L234A L235A, N297A, name in Kabat numbering)
heavy: B1 heavy
chain: B1 chain
light: B1 light with D30V, V56G
B18: GLS3000 V94N one-arm antibody (antibody, human IgG1, kappa, L234A L235A, N297A, name in Kabat numbering)
heavy: B1 heavy
chain: B1 chain
light: B1 light with D30V, V99N
B19: GLS3000 V94D one-arm antibody (antibody, human IgG1, kappa, L234A L235A, N297A, name in Kabat numbering)
heavy: B1 heavy
chain: B1 chain
light: B1 light with D30V, V99D
B20: GLS3000 V94K one-arm antibody (antibody, human IgG1, kappa, L234A L235A, N297A, name in Kabat numbering)
heavy: B1 heavy
chain: B1 chain
light: B1 light with D30V, V99K
B21: GLS3000 V94M one-arm antibody (antibody, human IgG1, kappa, L234A L235A, N297A, name in Kabat numbering)
heavy: B1 heavy
chain: B1 chain
light: B1 light with D30V, V99M
B22: GLS3000 V27cE one-arm antibody (antibody, human IgG1, kappa, L234A L235A, N297A, name in Kabat numbering)
heavy: B1 heavy
chain: B1 chain
light: B1 light with D30E
B23: GLS3000 V27cY one-arm antibody (antibody, human IgG1, kappa, L234A L235A, N297A, name in Kabat numbering)
heavy: B1 heavy
chain: B1 chain
light: B1 light with D30Y

molecular target: T1, CD3ε homodimer protein (human, UniProt P07766 23-126, limits assumed); assay: SPR Biacore T200, CD3ε homodimer on chip;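 further: Light-chain single-residue variant antibodies injected over amine-coupled CD3ε homodimer on a CM4 chip at 25 °C, bound amount divided by that of the GLS3000-containing antibody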
T1 construct: also called CD3 (CD3ε)
T1 sequence (P07766 23-126 limits assumed): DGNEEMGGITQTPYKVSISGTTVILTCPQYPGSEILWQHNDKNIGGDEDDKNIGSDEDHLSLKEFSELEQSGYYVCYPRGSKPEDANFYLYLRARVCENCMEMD

Row | ratio of amount bound vs unaltered GLS3000 | Binder
1 | 0.32 | B1
2 | 1.05 | B2
3 | 0.84 | B3
4 | 0.5 | B4
5 | 0.96 | B5
6 | 0.48 | B6
7 | 0.81 | B7
8 | 0.32 | B8
9 | 0.44 | B9
10 | 0.3 | B10
11 | 0.33 | B11
12 | 0.51 | B12
13 | 0.64 | B13
14 | 0.66 | B14
15 | 0.78 | B15
16 | 0.71 | B16
17 | 0.84 | B17
18 | 1.05 | B18
19 | 0.89 | B19
20 | 0.57 | B20
21 | 0.44 | B21
22 | 0.61 | B22
23 | 0.77 | B23

Reference: patent US20260049138A1 (Chugai, published 2026)
